Assay results taken from patent US20250145690A1 (US Dept. of Health and Human Services, published 2025).

How the values were obtained:
Experiment in all cases: bead flow cytometry, AUC minus CD4
[1] = target: T1, HCoV-NL63 spike protein (Sino Biological 40604-V08B) (HCoV-NL63, UniProt Q6Q1S2 19-1296)
T1 sequence: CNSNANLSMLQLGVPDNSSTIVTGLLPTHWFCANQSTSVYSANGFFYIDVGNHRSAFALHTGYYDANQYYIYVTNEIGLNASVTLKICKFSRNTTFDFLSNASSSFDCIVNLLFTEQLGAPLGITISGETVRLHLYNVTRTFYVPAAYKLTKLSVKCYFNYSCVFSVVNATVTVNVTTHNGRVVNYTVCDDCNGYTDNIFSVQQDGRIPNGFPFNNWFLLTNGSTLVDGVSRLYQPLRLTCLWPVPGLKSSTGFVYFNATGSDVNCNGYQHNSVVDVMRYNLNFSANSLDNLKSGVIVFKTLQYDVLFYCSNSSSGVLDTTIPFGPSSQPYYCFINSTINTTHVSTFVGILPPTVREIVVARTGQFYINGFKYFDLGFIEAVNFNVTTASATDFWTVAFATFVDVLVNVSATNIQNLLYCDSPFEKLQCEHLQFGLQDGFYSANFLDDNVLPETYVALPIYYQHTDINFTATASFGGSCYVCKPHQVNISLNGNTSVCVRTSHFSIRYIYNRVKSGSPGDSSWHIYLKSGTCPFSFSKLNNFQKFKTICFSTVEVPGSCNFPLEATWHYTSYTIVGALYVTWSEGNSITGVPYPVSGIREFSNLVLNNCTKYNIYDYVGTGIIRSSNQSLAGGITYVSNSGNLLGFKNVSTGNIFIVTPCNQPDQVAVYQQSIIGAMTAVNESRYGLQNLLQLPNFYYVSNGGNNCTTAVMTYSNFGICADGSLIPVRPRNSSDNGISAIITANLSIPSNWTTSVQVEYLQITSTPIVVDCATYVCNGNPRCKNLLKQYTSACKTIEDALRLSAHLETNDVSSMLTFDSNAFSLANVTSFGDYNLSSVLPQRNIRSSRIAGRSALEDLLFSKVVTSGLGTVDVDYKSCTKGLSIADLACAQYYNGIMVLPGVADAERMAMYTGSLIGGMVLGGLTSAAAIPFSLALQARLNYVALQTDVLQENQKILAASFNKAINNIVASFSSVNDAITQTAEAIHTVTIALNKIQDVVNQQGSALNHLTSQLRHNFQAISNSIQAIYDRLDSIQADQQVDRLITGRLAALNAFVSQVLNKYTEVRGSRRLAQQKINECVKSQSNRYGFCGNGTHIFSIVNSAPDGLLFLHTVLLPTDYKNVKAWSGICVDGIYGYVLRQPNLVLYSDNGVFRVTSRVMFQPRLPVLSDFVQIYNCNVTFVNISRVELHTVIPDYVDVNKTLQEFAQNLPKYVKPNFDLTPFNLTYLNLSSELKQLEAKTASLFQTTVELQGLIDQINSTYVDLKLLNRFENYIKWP

[2] = target: T2, HCoV-229E spike protein (Sino Biological 40605-V08B) (HCoV-229E, UniProt P15423 16-1115)
T2 sequence: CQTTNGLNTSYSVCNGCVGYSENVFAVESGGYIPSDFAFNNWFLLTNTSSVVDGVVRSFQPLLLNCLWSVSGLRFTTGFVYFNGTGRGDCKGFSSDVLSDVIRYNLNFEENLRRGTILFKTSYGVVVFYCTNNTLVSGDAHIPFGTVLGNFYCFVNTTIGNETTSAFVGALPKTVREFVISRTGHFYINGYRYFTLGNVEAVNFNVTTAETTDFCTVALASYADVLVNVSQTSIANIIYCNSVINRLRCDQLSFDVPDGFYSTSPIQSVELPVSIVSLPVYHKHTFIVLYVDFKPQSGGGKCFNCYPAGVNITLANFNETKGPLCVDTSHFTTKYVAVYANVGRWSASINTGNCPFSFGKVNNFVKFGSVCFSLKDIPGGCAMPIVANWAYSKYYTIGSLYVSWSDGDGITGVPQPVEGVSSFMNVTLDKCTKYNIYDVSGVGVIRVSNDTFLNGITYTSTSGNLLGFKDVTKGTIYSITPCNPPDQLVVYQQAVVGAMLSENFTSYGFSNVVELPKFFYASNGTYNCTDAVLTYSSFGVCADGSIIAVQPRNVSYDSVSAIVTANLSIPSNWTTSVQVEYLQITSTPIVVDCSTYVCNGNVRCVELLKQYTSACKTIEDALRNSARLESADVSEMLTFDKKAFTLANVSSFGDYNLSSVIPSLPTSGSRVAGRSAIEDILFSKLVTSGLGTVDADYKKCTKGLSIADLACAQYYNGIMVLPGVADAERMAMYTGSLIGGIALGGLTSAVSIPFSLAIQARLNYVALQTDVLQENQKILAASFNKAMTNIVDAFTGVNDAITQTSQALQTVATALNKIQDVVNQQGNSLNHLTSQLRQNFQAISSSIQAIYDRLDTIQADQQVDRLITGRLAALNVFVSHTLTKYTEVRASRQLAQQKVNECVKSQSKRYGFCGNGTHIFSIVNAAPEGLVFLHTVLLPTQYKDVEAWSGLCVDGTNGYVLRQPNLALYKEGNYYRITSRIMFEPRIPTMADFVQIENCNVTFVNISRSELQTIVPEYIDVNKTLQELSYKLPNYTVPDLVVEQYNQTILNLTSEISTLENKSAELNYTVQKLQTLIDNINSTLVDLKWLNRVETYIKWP

[3] = target: SARS-CoV-2 spike receptor binding domain (RBD), recombinant (SARS-CoV-2, UniProt P0DTC2 319-541)
[4] = target: SARS-CoV-2 spike N-terminal domain (NTD), recombinant (SARS-CoV-2, UniProt P0DTC2 14-305)

Measured: binding result

B1: COV93-08 (antibody, V domains shown)
VH: QVQLRESGPGVVKPSGTLSLTCTVSGDFINNNRWWTWVRQSPGKGLEWIGEIYHSGSTNYNPSLKGRVTISVDKSKNHFSLKLTSVTAADTAMYYCARGGYCTVGDCHDNWFDPWGQGTLVTVSS
VL: DIQMTQSPSTLSASVGDRVTITCRASQNINSWLAWYQQKPGKAPKVLIYKASSLESGVPSRFSGSVSGTEFTLTISSLQPDDFATYYCQQYSTLSWTFGQGTKVDIK
no binding (tested: 200 µg/mL): all assays above

B2: COV93-38 (antibody, V domains shown)
VH: QVQLQESGPGVVKPSGTLSLTCAVSGDFSNNNRWWTWVRQSPGKGLEWIGEIHQSGSTNYNPSLKSRITISVDKSKNQFSLKLTSVTAADTAVYYCARGGYCSVGDCHDNWFDPWGQGTLVTVSS
VL: DIQMTQSPSTLSASVGDRVTITCRASQTINSWLAWYQQKPGKAPKVLIYKASSLESGVPSRFSGSVSGTEFTLTISSLQPDDFATYYCQQYSSLSWTFGQGTKVDIK
no binding (tested: 200 µg/mL): all assays above

B3: COV93-17 (antibody, V domains shown)
VH: EVQLVQSGAEVKKPGESLRISCRGSGYSFTNYWISWVRQMPGKGLEWMGRIDPTDSYTNYSPSFQGHVTISTDKSISTAYLQWSSLKASDTAMYYCARHKNGMIHEYDYWGQGILVTVSS
VL: DIQLTQSPSTLSASVGDRVTITCRASQSIRSWLAWYQQKPGKAPKLLIYRASSLESGVPSRFSGSGSGTEFTLTISSLQPDDFATYYCQQYGTFGPGTKVDIR
no binding (tested: 200 µg/mL): all assays above

B4: COV93-03 (antibody, V domains shown)
VH: QLQLVQSGAEVKKPGASVKLSCKASGNTFTSHYIHWVRQAPGQGPEWMGIINPSGSGTRYAQKFQGRVTMTRDTSTSTVYMELVSLRFEDTAVYYCAGDYYLDYWGQGTLVTVSS
VL: EFVLTQSPGTLSLSPGERATLSCRASQSVTSNYLAWYQQKPGQAPRLLIFGASSRATGIPDRFSGSGSGTDFTLTISRLEPEDFAVYYCQQYGSSPPMYTFGPGTKVEIK
no binding (tested: 200 µg/mL): all assays above

B5: COV30-14 (antibody, V domains shown)
VH: QVQLVQSGAEVKKPGASVKVSCQTSGYTFTSYYMHWVRQAPGQGLEWMGLITPSGDDTYYAQRFQGRVTMTRDTSTSPTYMELSSLTSEDTAVYYCAKMSRAGGFDVWGQGTLVTVSS
VL: EVVLTQSPGTLSLSPGERATLSCRASQSITGRYLAWYQQKPGQAPRLLMYGESSRVTGIPDRFSGGGSGTDFTLTISRLEPEDFAVYYCQHFASSPPTYTFGQGTKLEIR
no binding (tested: 200 µg/mL): [1] | [2] | [4]

B6: COV72-37 (antibody, V domains shown)
VH: QVQLVQSGAEVKKPAASVKVSCKASGDTFSSHYMHWVRQAPGQGPEWMGIINPSGSGTAYGQKFQGRLTMTRDTSTSTVYMELSSLTSDDTAVYYCGGGSGGLFAYWGQGTLVTVSS
VL: EIVLTQSPGTLSLSPGERATLSCRASQIVRSNYLAWYQQKPGQAPRLLIYGASSRATGTPDRFSGGGSGTDFTLTINRLEPEDFAVYYCLQYDSSPPTYIFGQGTKLEIK
no binding (tested: 200 µg/mL): [1] | [2] | [4]
